Source: US20210324050A1 (published 2021)
Where two headings read alike, the source gives them in different places.

Key:
[1] = molecular target: GII.13 (norovirus GII.13); experiment: ELISA
[2] = molecular target: GII.17 (norovirus GII.17); experiment: ELISA
[3] = molecular target: GI.3 (norovirus GI.3); experiment: ELISA
[4] = molecular target: GII.3 (norovirus GII.3); experiment: ELISA
[5] = molecular target: T1, GII.4 Sydney 2012 shell (S) domain (UniProt P54635 1-221); experiment: ELISA
T1 chain: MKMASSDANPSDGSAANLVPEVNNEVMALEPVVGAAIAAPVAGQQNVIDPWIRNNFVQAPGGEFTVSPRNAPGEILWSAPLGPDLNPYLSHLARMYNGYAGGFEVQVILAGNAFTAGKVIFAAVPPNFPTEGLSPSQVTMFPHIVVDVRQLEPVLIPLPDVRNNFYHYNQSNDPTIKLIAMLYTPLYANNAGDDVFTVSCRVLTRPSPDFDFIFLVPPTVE

[6] = molecular target: GII.6 (AF414410) VLPs (norovirus GII.6); experiment: ELISA
[7] = molecular target: GII.6 (AF414410) VLPs (norovirus GII.6); experiment: VLP-PGM blockade
[8] = molecular target: T2, GII.4 Houston 2002 (ABY27560.1) VLPs (UniProt P54635 1-539); experiment: VLP blockade
[9] = molecular target: T1, GII.4 Sydney 2012 shell (S) domain; experiment: ELISA
[10] = molecular target: T2, GII.4 Houston 2002 (ABY27560.1) VLPs; experiment: ELISA binding
[11] = molecular target: GI.3 Protruding (norovirus GI.3); experiment: ELISA
[12] = molecular target: GI.3 (norovirus GI.3); experiment: VLP-PGM blockade
[13] = molecular target: Glutathione S-transferase (GST)-tagged GII.4 Sydney 2012 P domain dimers; experiment: ELISA

B1: 279A (antibody, V domains shown)
VH: QVQLVESGGGVVQPGRSLRLSCAASGFTFTKYGMHWVRQAPGKGLEWVAFIAYDGSVKYYGDSAKGRFAISRDNPKNTVYLQMNSLRAEDTAVYYCAKVEIHYYSNSLLGMDVWGQGTLVTVSS
VL: QSVLTQPPSASGTPGQRVTISCSGGNSNIGISYVYWYQHLPGTAPKLLISKNNLRPSGVPDRFSASKSGTSASLAISGLRSEDEAEYYCATLDINMTWVFGGGTKLTVL
[1]
  EC50: 10 nM
[2]
  EC50: 18 nM
[3]
  EC50: 70 nM
[4]
  EC50: 14 nM

B2: NORO-279A (antibody, V domains shown)
VH: QVQLVESGGGVVQPGRSLRLSCAASGFTFTKYGMHWVRQAPGKGLEWVAFIAYDGSVKYYGDSAKGRFAISRDNPKNTVYLQMNSLRAEDTAVYYCAKVEIHYYSNSLLGMDVWGQGTLVTVSS
VL: QSVLTQPPSASGTPGQRVTISCSGGNSNIGISYVYWYQHLPGTAPKLLISKNNLRPSGVPDRFSASKSGTSASLAISGLRSEDEAEYYCATLDINMTWVFGGGTKLTVL
[5]
  EC50: 3 nM
[6]
  EC50: 14 nM
[7]
  EC50: 32 nM
[8]
  EC50: > 100 µg/mL
[9]
  EC50: 0.4 µg/mL
[10]
  EC50: 0.3 µg/mL

B3: NORO-251A (antibody, V domains shown)
VH: QVQLVESGGGVVQPGRSLRLSCAASGFTFRSYGIHWVRQAPGKGLEWVALISYDGSSKYYADSVKGRFTISRDNSKNTLYLQMNSLRSEDTAVYYCAKVRLTSYSIGWFSFDYWGQGTLVTVSS
VL: QSVLTQPPSVSAAPGQKVTISCSGSSSNIANYYVSWYQQLPGRAPKLLIYDNNKRPSGIPDRISGSKSGTSATLGITGLQTGDEADYYCGTWDTSLSAWVFGGGTKLTVL
[8]
  EC50: > 100 µg/mL
[9]
  EC50: 4.1 µg/mL
[10]
  EC50: 0.3 µg/mL

B4: 178.6 (antibody, V domains shown)
VH: QVQLVESGGGVVQPGRSLRLSCAASGFTFSTYGMNWVRQAPGRGLEWVADISYDGSNSRYADSVKGRFTISRDNSKNTLSLQMNGLRTEDTAVYYCAKDWYLAMAGAAFDSWGPGTLVTVSS
VL: SSELTQDPVVSVALGQTVRITCQGDSLTTFYASWFQQKPGQAPALVLYGNDNRPSGIPDRFSGSRSGNTASLTITGAQAEDEADYYCNSRDSSGKPSFGGGTKLTVL
[11]
  EC50: 336 nM
[1]
  EC50: 18 nM
[2]
  EC50: 16 nM
[3]
  EC50: 83 nM
[4]
  EC50: 29 nM
[12]
  EC50: 470 nM

B5: NORO-296A (antibody, V domains shown)
VH: QVQLVESGGGLVKPGGSLRLSCAASGFTFSEYYMSWVRQAPGKALEWVSYITSSFSSTSYADSVKGRFVISRDNAKNSLYLQMNSLRVEDTAVYYCARYGAEYGSRSFYFLDWGQGTLVTVSS
VL: QSVLTQPPSVSGAPEQRVTISCTGSSSNIGAGYDVHWYQVLPGIAPKLLIYDNNKRPSGVPDRFSGSKSGTSASLAITGLQAEDEADYYCQSYDSRLSSNVVFGGGTKLTVL
[8]
  EC50: 3.2 µg/mL
[9]
  EC50: 12.5 µg/mL
[10]
  EC50: 0.1 µg/mL

B6: NORO-256A (antibody, V domains shown)
VH: QVQLVESGGGVVQAGRSLRLSCAASGFTFRSYGMHWVRQAPGKGLEWVAIISYDGGSKYYADSVKGRFTISRDNSKNTLYLQMNSLRVEDTALYYCAKDFLRVYSYGWHSFDIWGLGTLVTVSS
VL: QSVLTQPPSVSAAPGQRVTISCSGSSSNIGTYYVSWYQHLPGTAPKLLIYDNDKRPSGIPDRFSASKSGTSATLDIAGLQTGDEADYYCGTWDLSLTAGWVFGGGTKLTVL
[8]
  EC50: > 100 µg/mL
[9]
  EC50: 0.4 µg/mL
[10]
  EC50: 0.4 µg/mL

B7: NORO-178.6 (antibody, V domains shown)
VH: QVQLVESGGGVVQPGRSLRLSCAASGFTFSTYGMNWVRQAPGRGLEWVADISYDGSNSRYADSVKGRFTISRDNSKNTLSLQMNGLRTEDTAVYYCAKDWYLAMAGAAFDSWGPGTLVTVSS
VL: SSELTQDPVVSVALGQTVRITCQGDSLTTFYASWFQQKPGQAPALVLYGNDNRPSGIPDRFSGSRSGNTASLTITGAQAEDEADYYCNSRDSSGKPSFGGGTKLTVL
[5]
  EC50: 8 nM
[6]
  EC50: 20 nM

B8: NORO-202A.1 (antibody, V domains shown)
VH: QVQLVQSGAEVKKPGASVKVSCKASEYTFTGYYLQWVRQAPGHGLEWMGWINPSGGTKYSQKFQGRVTMTRDTSITTVYMELSRLRSDDTAVYYCARDLLRNWGDHDAFDVWGQGTMVTVSS
VL: QSVLTQPPSASETPGQGVTISCSGSSSNIGSNFVCWYQQVPGTAPKLLIYKNNQRPSGVPDRFSGSKSGTSASLAISGLRSEDEADYYCSAWDDSLSGPVFGGGTKLTVL
[5]
  EC50: 3 nM
[7]
  EC50: 47 nM
[8]
  EC50: > 100 µg/mL
[9]
  EC50: 0.2 µg/mL
[10]
  EC50: 0.1 µg/mL

B9: NORO-312A (antibody, V domains shown)
VH: QVQLVESGGALVKPGESLRLSCAASGFTFSDSYMSWIRQAPGKGLEWVAYISGIMSSTNYADSVKGRFTISRDNGKNSVYLQMNNLRAEDTAVYYCARDAQYCSGGRCYLVFDYWGQGTLVTVSS
VL: QSVLTQPPSVSGAPGQRVTISCTGSSSNIGAGYEVHWYQQLPGAAPKLIIYGNNNRPSGVPDRFSGSKSGTSASLAITGLQADDEADYYCQSYDNRLRVFGGGTKLTVL
[9]
  EC50: 9.9 µg/mL

B10: NORO-278 (antibody, V domains shown)
VH: QVQLVESGGGVVQPGRSLRLSCAASGFTFSSYGMHWVRQAPGKGLEWVAVISYDGSNKYYADSVKGRFTISRDNSKNTLYLQMNSLRAEDTAVYYCAKVTIIAAADLLDYWGQGTLVTVSS
VL: QSVLTQPPSVSGAPGQRVTISCTGSSSNIGAGYDVHWYQQLPGTAPKLLIYGNSNRPSGVPDRFSGSKSGTSASLAITGLQAEDEADYYCQSYDSSLSGPVVFGGGTKLTVL
[8]
  EC50: > 100 µg/mL
[13]
  EC50: 68.5 µg/mL
[10]
  EC50: 0.5 µg/mL

B11: 156.3 (antibody, V domains shown)
VH: QVQLQQWGAGLLKPSETLSLTCAVYGGSFSGYYWSWIRQPPGKGLEWIGEINHSGSTNYNPSLKSRVTISVDTSKNQFSLKLSSVTAADTAVYYCARGLMDVWGQGTLVTVSS
VL: AIRMTQSPSSFSASTGDRVTITCRASQGISSYLAWYQQKPGKAPKLLIYAASTLQSGVPSRFSGSGSGTDFTLTISCLQSEDFATYYCQQYYSYPRTFGQGTKLEIK
[1]
  EC50: 54 nM
[2]
  EC50: 90 nM
[3]
  EC50: 47 nM
[12]
  EC50: 678 nM

B12: 202A.1 (antibody, V domains shown)
VH: QVQLVQSGAEVKKPGASVKVSCKASEYTFTGYYLQWVRQAPGHGLEWMGWINPSGGTKYSQKFQGRVTMTRDTSITTVYMELSRLRSDDTAVYYCARDLLRNWGDHDAFDVWGQGTMVTVSS
VL: QSVLTQPPSASETPGQGVTISCSGSSSNIGSNFVCWYQQVPGTAPKLLIYKNNQRPSGVPDRFSGSKSGTSASLAISGLRSEDEADYYCSAWDDSLSGPVFGGGTKLTVL
[1]
  EC50: 4 nM
[4]
  EC50: 41 nM

B13: 323A (antibody, V domains shown)
VH: QVQLVESGGGVVQPGRSLRLSCAASGFTFSGSSLHWVRQAPGKGLEWVAAISYDGTNTYYADSVKGRFTLSRDNSKNTLYLQMNSLRAEDTAVYYCAKPVLSPFDYWGQGTLVTVSS
VL: QSALTQPASVSGSPGQSITISCTGTSSDVGGYNYVSWYQQHPGKAPKLLIYEVSNRPSGVSRRFSGSKSGNTASLTISGLQAEDEADYYCCSYTSSSTEVFGGGTKLTVL
[11]
  EC50: 7 nM
[3]
  EC50: 3 nM
[12]
  EC50: 15 nM

B14: NORO-250B (antibody, V domains shown)
VH: QVQLVESGGGLVKPGGSLTLSCAASGFTFSDYYMNWIRQAPGKRLEWVSYISGIMSSTNYADSVKGRFTISRDTAKKSVYLQMNSLRAEDTAVYYCARATSQGATSYYFDSWGQGTLVTVSS
VL: QSVLTQPPSVSGAPGQRVTISCTGSSSNIGADYDVHWYQQLPGAAPRLLIYADINRPSGVPDRFSGSKSGTSASLAITGLQAEDEADYYCQSYDRSVSGSAVFGGGTKVTVL
[8]
  EC50: 17.9 µg/mL
[13]
  EC50: 0.1 µg/mL
[10]
  EC50: 0.1 µg/mL

B15: NORO-310A (antibody, V domains shown)
VH: EVQLVESGGGLVRPGESLRLSCVASGFSVSDNYMSWVRQAPGKGLQWVSVIYSGGTTFYTDSVKGRFTISRDKSKNTLFLQMNSLRAEDTAVYFCTRDPSQYYDSRGHYYQTFTPSFDSWGQGTLVTVSS
VL: DIQMTQSPSVMSASVGDRVTITCRASQDISDYLAWFQQKPGKVPKRLIYAASSLQNGVPSRFSGSGSGTEFTLTISSLQPEDFATYYCLQHDTYPLTFGGGTKVEIK
[5]
  EC50: 19 nM
[6]
  EC50: 44 nM
[8]
  EC50: > 100 µg/mL
[9]
  EC50: 1.8 µg/mL
[10]
  EC50: 0.6 µg/mL

B16: NORO-329A (antibody, V domains shown)
VH: QVQLVESGGGLVKPGGSLRLSCAASGFTFSDYYMSWIRQAPGKGLEWISYISSSFGSTDYAGSMKGRFTISRDNAKNSLYLQMNSLRAEDTAVYYCARYNYYGSGSFVFDYWGQGTLVTVSS
VL: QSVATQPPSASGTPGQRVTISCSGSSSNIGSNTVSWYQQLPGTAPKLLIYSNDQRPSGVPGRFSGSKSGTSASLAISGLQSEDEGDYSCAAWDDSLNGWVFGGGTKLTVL
[9]
  EC50: 35.8 µg/mL
